Source: patent publication US20250277030A1 (Zymeworks, published 2025)

T1: human sodium-dependent phosphate transporter 2B (NaPi2b) (human, UniProt O95436 1-690)
T1 construct: UniProt ID is given as 095436 [sic]; also called hNaPi2b; Hu NaPi2b
T1 sequence: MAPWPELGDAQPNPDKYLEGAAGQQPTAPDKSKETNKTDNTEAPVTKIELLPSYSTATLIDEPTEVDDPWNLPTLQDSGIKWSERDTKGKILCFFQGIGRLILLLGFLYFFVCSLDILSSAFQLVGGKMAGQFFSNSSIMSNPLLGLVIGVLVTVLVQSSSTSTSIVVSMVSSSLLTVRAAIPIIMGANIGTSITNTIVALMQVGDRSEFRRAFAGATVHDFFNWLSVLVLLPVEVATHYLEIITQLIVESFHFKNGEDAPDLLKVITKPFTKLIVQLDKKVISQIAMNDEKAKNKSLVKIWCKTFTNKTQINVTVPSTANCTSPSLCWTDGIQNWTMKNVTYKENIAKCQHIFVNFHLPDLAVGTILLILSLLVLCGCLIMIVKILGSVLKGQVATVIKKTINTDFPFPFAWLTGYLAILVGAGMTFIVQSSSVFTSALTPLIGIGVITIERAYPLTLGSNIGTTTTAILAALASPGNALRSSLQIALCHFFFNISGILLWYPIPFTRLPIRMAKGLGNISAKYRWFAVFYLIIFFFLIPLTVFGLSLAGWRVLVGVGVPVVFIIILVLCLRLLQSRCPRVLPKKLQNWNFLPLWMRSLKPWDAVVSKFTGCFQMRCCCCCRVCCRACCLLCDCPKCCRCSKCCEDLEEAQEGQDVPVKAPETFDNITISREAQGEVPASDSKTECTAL

T2: mouse NaPi2b (mouse, UniProt Q9DBP0 1-697)
T2 construct: Transiently expressed on HEK293-6e cells; also called Ms NaPi2b
T2 sequence: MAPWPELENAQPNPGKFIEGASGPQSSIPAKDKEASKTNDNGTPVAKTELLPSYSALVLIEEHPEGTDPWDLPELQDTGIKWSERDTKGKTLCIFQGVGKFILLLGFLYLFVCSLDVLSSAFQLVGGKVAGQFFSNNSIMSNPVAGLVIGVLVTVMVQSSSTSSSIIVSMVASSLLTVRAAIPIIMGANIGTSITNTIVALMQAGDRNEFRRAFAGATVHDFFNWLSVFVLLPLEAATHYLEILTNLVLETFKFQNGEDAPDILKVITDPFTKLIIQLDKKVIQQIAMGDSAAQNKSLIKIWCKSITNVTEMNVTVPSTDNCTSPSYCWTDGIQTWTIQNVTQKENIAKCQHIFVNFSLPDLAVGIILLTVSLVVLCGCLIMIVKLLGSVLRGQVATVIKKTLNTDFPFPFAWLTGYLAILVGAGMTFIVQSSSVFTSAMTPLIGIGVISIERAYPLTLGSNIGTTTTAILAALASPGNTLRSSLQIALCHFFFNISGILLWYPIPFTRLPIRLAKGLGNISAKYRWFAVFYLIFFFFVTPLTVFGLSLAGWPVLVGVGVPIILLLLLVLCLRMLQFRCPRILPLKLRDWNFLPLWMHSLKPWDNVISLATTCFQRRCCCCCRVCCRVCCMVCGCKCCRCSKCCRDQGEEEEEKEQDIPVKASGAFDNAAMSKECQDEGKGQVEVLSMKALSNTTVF

T3: cynomolgus monkey NaPi2b (cynomolgus monkey, UniProt O95436 1-690 (human entry))
T3 construct: Transiently expressed on HEK293-6e cells; also called Cyno NaPi2b
T3 chain: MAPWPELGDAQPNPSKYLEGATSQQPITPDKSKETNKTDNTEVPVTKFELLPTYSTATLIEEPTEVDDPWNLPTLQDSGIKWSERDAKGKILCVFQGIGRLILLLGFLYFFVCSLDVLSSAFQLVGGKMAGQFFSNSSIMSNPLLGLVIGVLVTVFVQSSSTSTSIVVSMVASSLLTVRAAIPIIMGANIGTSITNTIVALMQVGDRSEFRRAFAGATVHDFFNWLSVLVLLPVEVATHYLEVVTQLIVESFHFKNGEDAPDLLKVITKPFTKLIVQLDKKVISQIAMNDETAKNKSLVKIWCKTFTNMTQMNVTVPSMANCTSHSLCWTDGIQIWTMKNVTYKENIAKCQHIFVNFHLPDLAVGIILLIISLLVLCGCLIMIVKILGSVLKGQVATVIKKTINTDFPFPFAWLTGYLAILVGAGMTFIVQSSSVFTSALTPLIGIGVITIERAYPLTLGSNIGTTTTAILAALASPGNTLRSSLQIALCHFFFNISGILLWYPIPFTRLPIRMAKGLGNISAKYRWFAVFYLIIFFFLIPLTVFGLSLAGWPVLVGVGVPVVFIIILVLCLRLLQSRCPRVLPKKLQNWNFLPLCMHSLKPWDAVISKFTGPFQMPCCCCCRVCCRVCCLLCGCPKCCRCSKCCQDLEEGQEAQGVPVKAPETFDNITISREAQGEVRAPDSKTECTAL


What was measured:
[1] = molecular target: T1, human sodium-dependent phosphate …; assay: flow cytometry, IGROV-1 cells (endogenous NaPi2b); apparent Kd
Description: (§1) Briefly, cells were seeded at 50,000 cells/well in conical-bottom 96-well plates and treated with test antibody for 24 hours at 4° C. to prevent internalization. […] Following incubation, cells were washed and stained with anti-Human IgG Fc AF647 conjugate (Jackson Immuno Research Labs, West Grove, PA; Cat. No. 109-605-098) at 4° C. for 30 min. Following incubation and washing, fluorescence was detected by flow cytometry on a BD LSRFortessa™ Cell Analyzer (BD Biosciences, Franklin Lake, NJ) with 1,000 minimum events collected per well. The AF647/APC-A GeoMean (fluorescence signal geometric mean, proportional to anti-Human AF647 binding) was calculated for the live cell population using FlowJo™ Version 10.8.1 (BD Biosciences, Franklin Lake, NJ) and plotted for each test antibody using GraphPad Prism Version 9 (GraphPad Software, San Diego, CA).
(§2) The ability of the humanized antibody variants v38591 and v29456 to bind to NaPi2b expressed on cells was assessed on endogenous NaPi2b-expressing tumor cell lines IGROV-1 (ovarian adenocarcinoma) and TOV-21G (ovarian carcinoma) by flow cytometry.
(§3) Cellular binding was performed according to methods described in Example 13.

[2] = molecular target: T1, human sodium-dependent phosphate …; assay: flow cytometry, TOV-21G cells (endogenous NaPi2b); apparent Kd
Description: as §1, §2, §3

[3] = molecular target: T1, human sodium-dependent phosphate …; assay: flow cytometry, HEK293-6e cells transfected with human NaPi2b; apparent Kd
Description: The binding cross-reactivity of humanized antibody variant v38591 to human NaPi2b, NaPi2a, and NaPi2c was assessed by flow cytometry using HEK293-6e transfected cells.
Following transfection, cells were seeded at 50,000 cells/well in conical-bottom 96-well plates and treated with test antibody for 24 hours at 4° C. to prevent internalization. Following incubation, cells were washed and stained with anti-Human IgG Fc AF647 conjugate (Jackson Immuno Research Labs, West Grove, PA; Cat. No. 109-605-098) or anti-Rabbit IgG F(ab″)2 AF647 conjugate (Jackson Immuno Research Labs, West Grove, PA; Cat. No. 111-605-047). Following incubation and washing, fluorescence was detected by flow cytometry on a BD LSRFortessa™ Cell Analyzer (BD Biosciences, Franklin Lake, NJ) with 1,000 minimum events collected per well. The AF647/APC-A GeoMean (fluorescence signal geometric mean, proportional to anti-Human AF647 binding) was calculated for the live cell population using FlowJo™ Version 10.8.1 (BD Biosciences, Franklin Lake, NJ) and plotted for each test antibody using GraphPad Prism Version 9 (GraphPad Software, San Diego, CA).

[4] = molecular target: T1, human sodium-dependent phosphate …; assay: flow cytometry on IGROV-1 cells (endogenous NaPi2b), 24 h at 4 C, anti-human IgG Fc AF647 detection
Description: as §1, §2, §3

[5] = molecular target: T1, human sodium-dependent phosphate …; assay: flow cytometry on TOV-21G cells (endogenous NaPi2b), 24 h at 4 C, anti-human IgG Fc AF647 detection
Description: as §1, §2, §3

[6] = molecular target: T4, FcgR1A (human, UniProt P12314 16-374); assay: Membrane Proteome Array screen, flow cytometry on HEK293T cells each expressing one of over 6000 human membrane proteins
T4 construct: whole, on cells
Description: Briefly, the study consisted of three phases: phase (1) determination of assay screening conditions, phase (2) membrane proteome array (library) screen and phase (3) protein target validation. […] In phase (3), each protein target hit from the screen stage (potential off-target interactions) was assessed in titration experiment using flow cytometry.

[7] = molecular target: T2, mouse NaPi2b; assay: flow cytometry on HEK293-6e cells transiently expressing mouse NaPi2b, 4 C, anti-human IgG Fc AF647 detection
[8] = molecular target: T3, cynomolgus monkey NaPi2b; assay: flow cytometry on HEK293-6e cells transiently expressing cynomolgus NaPi2b, 4 C, anti-human IgG Fc AF647 detection

T4 sequence (P12314 16-374): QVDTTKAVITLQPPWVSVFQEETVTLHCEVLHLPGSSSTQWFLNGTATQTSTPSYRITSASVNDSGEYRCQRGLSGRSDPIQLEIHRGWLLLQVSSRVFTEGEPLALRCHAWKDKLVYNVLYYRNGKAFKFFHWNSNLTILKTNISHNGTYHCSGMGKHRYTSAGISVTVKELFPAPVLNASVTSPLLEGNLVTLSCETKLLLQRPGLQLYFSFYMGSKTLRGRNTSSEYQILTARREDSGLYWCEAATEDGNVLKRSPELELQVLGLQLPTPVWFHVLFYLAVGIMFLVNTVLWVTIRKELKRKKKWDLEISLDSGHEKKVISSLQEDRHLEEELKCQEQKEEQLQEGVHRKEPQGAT

Binder	Kd [1]	Kd [2]	Kd [3]	EC50 (read off the curve) [4]	EC50 (read off the curve) [5]	binding result [6]	binding result [7]	binding result [8]
v38591 humanized anti-NaPi2b antibody (antibody, human IgG1, kappa, also called humanized v38591 anti-NaPi2b (SLC34A2) variant) heavy: not shown light: DVQMTQSPSSLSASVGDRVTITCRASQDVYSYLNWYQQKPGKAVKLLIYYTSRLQSGVPSRFSGSGSGTDYTLTISSLQPEDFATYYCQQYNIFPWTFGQGTKLEIKRTVAAPSVFIFPPSDEQLKSGTASVVCLLNNFYPREAKVQWKVDNALQSGNSQESVTEQDSKDSTYSLSSTLTLSKADYEKHKVYACEVTHQGLSSPVTKSFNRGEC	1.39 nM	0.74 nM	1.68 nM	~1 nM	~0.7 nM	binds		
v22277, palivizumab (anti-RSV) negative control (antibody, human IgG1, kappa, Heterodimeric Fc form of palivizumab (clones CL_#11009, CL_#11010, CL_#16635); also called neg control) heavy 1: GQVTLRESGPALVKPTQTLTLTCTFSGFSLSTSGMSVGWIRQPPGKALEWLADIWWDDKKDYNPSLKSRLTISKDTSKNQVVLKVTNMDPADTATYYCARSMITNWYFDVWGAGTTVTVSSASTKGPSVFPLAPSSKSTSGGTAALGCLVKDYFPEPVTVSWNSGALTSGVHTFPAVLQSSGLYSLSSVVTVPSSSLGTQTYICNVNHKPSNTKVDKKVEPKSCDKTHTCPPCPAPELLGGPSVFLFPPKPKDTLMISRTPEVTCVVVDVSHEDPEVKFNWYVDGVEVHNAKTKPREEQYNSTYRVVSVLTVLHQDWLNGKEYKCKVSNKALPAPIEKTISKAKGQPREPQVYVYPPSRDELTKNQVSLTCLVKGFYPSDIAVEWESNGQPENNYKTTPPVLDSDGSFALVSKLTVDKSRWQQGNVFSCSVMHEALHNHYTQKSLSLSPG heavy 2: not shown light: GDIQMTQSPSTLSASVGDRVTITCKSQLSVGYMHWYQQKPGKAPKLLIYDTSKLASGVPSRFSGSGSGTEFTLTISSLQPDDFATYYCFQGSGYPFTFGGGTKLEIKRTVAAPSVFIFPPSDEQLKSGTASVVCLLNNFYPREAKVQWKVDNALQSGNSQESVTEQDSKDSTYSLSSTLTLSKADYEKHKVYACEVTHQGLSSPVTKSFNRGEC							no binding (tested: about 200 nM)	no binding (tested: about 200 nM)
